Source: patent publication US12460006B2, “Antibodies against integrin alpha 11 beta 1” (Momenta Pharmaceuticals, Inc., priority 2019, dated 2025)

Tests used:
[1] = system: CHO-K1 cells expressing human α11; assay: Cell adhesion inhibition (xCelligence), type I collagen; type: cell-based; settings: Yes/No
Method in brief: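 CHO-K1 cells expressing human α11 (0.6×10^6 cells/mL) were preincubated with mAbs across a concentration range for 20 min at 37° C, then seeded on wells coated with 100 ng/mL type I collagen and blocked with 3% BSA. Impedance-based adhesion was recorded over 6 h, and maximum adhesion was compared with untreated control.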

α1β1, α2β1 and/or α10β1 = assay: Counter-screen for cross-reactivity to other collagen receptors; type: binding, human; settings: cross-reactivity to α1β1, α2β1, α10β1
Method in brief: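 Cross-reactivity was checked by ELISA counter-screen on human α1β1, α2β1 and α10β1. Tested material was hybridoma clones from rats or mice immunized with α11β1, previously selected for binding to soluble human and mouse α11β1.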

[2] = system: Human Pulmonary Fibroblasts; assay: Fibroblast-to-Myofibroblasts Transition (FMT), αSMA expression; type: cell-based; settings: Yes/No
Method in brief: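 Cells seeded at 20,000/well, serum-starved 24 h, then given TGFβ-1 with or without anti-α11 antibodies for 48 h; polyclonal anti-α11 and isotype IgG served as controls. Fixed, permeabilized cells were stained for αSMA and analysed by flow cytometry (single-cell gMFI). Values are normalized to untreated control as % inhibition.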

human α11β1 = human α11β1 (Homo sapiens, UniProt Q9UKX5); assay: ELISA binding to recombinant human α11β1; settings: binding Yes/No
Method in brief: (§1)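 Antibody binding read at 450 nm after TMB development, using biotinylated anti-rabbit/mouse/human IgG then streptavidin-HRP. Antibody dilution series incubated 1 h at room temperature on BSA-blocked plates coated overnight at 4 °C with 0.25 μg/mL human or mouse α11β1.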

mouse α11β1 = mouse α11β1 (Mus musculus, UniProt P61622); assay: ELISA binding to recombinant mouse α11β1; settings: binding Yes/No
Method in brief: as §1

Sequence of mouse α11β1 (P61622 23-1141 limits assumed): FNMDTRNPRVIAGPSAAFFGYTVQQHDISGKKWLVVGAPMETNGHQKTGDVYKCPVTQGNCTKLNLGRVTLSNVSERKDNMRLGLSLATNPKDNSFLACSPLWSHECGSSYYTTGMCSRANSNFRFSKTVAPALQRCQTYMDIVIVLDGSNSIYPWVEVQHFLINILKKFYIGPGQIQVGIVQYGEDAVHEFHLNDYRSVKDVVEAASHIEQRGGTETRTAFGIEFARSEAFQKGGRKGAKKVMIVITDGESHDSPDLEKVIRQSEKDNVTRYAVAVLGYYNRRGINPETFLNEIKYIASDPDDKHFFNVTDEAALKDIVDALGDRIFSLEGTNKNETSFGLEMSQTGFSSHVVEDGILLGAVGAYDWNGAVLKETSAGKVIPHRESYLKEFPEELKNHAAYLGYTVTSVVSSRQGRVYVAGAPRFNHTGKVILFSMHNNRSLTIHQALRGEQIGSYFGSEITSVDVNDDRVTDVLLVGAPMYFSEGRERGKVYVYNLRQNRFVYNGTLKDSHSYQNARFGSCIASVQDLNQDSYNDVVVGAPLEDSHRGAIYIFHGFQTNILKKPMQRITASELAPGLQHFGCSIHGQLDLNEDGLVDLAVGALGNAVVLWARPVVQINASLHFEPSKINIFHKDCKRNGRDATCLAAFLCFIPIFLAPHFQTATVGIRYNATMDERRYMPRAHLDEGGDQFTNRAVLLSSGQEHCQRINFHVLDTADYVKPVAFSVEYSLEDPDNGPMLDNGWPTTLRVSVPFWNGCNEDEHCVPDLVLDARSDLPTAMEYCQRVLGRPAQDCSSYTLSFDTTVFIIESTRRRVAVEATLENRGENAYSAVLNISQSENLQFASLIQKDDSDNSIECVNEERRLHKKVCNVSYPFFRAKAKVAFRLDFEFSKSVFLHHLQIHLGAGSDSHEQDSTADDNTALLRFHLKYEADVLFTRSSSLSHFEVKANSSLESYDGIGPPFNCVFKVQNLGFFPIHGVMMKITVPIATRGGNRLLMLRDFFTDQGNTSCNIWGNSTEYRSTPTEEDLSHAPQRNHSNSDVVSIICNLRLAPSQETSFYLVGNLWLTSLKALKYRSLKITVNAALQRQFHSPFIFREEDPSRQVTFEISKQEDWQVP
Sequence of mouse α11β1 (P09055 21-728 partner limits assumed): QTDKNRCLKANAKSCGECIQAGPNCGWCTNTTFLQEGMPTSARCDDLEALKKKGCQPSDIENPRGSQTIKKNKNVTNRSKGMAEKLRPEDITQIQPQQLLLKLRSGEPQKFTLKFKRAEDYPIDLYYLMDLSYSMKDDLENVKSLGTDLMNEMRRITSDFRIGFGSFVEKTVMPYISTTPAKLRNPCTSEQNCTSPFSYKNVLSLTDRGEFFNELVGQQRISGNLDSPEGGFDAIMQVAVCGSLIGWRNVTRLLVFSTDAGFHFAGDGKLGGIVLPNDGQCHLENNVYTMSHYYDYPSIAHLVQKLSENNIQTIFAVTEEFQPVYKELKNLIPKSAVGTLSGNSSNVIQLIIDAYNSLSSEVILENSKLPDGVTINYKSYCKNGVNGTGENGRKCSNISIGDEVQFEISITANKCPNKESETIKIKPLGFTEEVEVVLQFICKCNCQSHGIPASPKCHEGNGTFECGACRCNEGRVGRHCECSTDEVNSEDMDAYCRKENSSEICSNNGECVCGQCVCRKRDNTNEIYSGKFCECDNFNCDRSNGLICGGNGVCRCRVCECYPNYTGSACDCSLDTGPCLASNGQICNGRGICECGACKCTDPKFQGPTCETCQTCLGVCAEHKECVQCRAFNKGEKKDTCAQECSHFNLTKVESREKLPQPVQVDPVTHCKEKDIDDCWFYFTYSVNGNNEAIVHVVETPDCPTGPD
Sequence of human α11β1 (Q9UKX5 23-1141 limits assumed): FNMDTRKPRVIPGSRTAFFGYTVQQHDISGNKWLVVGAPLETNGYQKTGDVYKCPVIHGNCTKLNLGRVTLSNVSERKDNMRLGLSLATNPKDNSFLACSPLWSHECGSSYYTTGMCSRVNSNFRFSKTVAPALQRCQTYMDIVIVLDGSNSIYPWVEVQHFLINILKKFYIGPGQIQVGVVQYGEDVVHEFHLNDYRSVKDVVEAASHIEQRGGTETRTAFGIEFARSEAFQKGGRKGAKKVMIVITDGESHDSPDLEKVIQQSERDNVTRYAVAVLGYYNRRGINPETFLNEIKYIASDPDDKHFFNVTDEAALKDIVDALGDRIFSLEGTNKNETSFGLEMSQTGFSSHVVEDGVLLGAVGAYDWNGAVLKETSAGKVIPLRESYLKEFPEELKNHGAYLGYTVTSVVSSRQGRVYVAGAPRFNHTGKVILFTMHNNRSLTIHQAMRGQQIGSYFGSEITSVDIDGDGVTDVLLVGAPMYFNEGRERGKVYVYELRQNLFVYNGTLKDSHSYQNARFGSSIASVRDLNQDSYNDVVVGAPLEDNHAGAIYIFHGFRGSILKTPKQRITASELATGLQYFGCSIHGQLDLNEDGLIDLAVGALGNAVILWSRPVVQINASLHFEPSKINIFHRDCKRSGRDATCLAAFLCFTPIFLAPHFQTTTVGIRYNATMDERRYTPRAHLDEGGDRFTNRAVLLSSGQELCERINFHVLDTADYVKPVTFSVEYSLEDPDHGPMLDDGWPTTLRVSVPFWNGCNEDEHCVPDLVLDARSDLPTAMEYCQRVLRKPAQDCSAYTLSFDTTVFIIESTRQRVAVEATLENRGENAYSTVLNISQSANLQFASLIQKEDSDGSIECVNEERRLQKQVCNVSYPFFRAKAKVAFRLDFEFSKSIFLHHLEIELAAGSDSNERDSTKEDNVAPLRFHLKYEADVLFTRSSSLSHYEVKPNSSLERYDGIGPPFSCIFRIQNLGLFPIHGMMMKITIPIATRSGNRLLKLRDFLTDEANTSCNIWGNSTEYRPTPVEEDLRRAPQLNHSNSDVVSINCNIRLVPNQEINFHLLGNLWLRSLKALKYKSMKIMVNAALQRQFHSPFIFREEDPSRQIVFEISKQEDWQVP
Sequence of human α11β1 (P05556 21-728 partner limits assumed): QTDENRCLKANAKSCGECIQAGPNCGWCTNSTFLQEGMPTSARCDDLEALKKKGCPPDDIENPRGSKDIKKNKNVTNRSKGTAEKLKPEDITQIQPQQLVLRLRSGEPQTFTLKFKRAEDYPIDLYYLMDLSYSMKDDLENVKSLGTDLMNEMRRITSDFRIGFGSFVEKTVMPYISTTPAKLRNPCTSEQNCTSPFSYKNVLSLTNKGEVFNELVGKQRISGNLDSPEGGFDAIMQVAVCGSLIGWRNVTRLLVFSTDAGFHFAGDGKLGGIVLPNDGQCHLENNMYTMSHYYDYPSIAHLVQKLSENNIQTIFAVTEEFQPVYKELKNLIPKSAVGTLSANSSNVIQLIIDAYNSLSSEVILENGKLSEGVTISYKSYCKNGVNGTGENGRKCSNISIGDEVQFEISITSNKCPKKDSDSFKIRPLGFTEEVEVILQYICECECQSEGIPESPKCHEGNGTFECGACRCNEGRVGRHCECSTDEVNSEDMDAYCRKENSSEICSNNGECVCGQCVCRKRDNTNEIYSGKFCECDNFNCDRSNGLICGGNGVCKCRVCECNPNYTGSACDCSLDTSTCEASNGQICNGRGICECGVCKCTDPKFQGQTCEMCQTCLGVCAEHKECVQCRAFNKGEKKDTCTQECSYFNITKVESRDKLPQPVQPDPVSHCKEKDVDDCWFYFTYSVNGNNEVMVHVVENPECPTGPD

Row | Off Target (α1β1, α2β1 and/or α10β1) | Human α11β1 ELISA (human α11β1) | Murine α11β1 ELISA (mouse α11β1) | Molecule | Inhibition of CHO-K1 adhesion to collagen [1] | Inhibition of FMT [2]
1 | No | Yes | Yes | 10-L15: mouse anti-α11β1 mAb; VH SEQ ID NO: 119, VL SEQ ID NO: 120 (antibody, V domains shown) VH: QVQLQQSGPELVRPGASVKMSCKASGYTFTSYWMHWVKQRPGQGLEWIGMIDPSNSETWLNQKFKDKATLNVDKSSNTAYMQLSSLTSEDSAVYYCARYDGYYDYWGQGTTLTVSS VL: NIVLTQSPASLAVSLGQRATISCRASESVDSYGNSFMHWYQQKPGQPPKLLIYLASNVESGVPARFSGSGSRTDFTLTIDPVEADDAATYYCQQNNEDPWTFGGGTKLEIK | No | No
2 | No | Yes | No | 5A7: rabbit anti-α11β1 mAb; heavy chain SEQ ID NO: 193, light chain SEQ ID NO: 194 (antibody) heavy: METGLRWLLLVAVLKGVQCQSLEESGGGLVQPEGSLTLACTASGFSFSSYYYICWVRQAPGTGLEWIGCINTGSDDTHYASWLKGRFTFSKASSTTLTLQMTSLTAADTATYFCARSSGSSDDAYDLWGPGTLVTVSSGQPKAPSVFPLAPCCGDTPSSTVTLGCLVKGYLPEPVTVTWNSGTLTNGVRTFPSVRQSSGLYSLSSVVSVTSSSQPVTCNVAHPATNTKVDKTVAPSTCSKPMCPPPELPGGPSVFIFPPKPKDTLMISRTPEVTCVVVDVSQDDPEVQFTWYINNEQVRTARPPLREQQFNSTIRVVSTLPIAHQDWLRGKEFKCKVHNKALPAPIEKTISKARGQPLEPKVYTMGPPREELSSRSVSLTCMINGFYPSDISVEWEKNGKAEDNYKTTPTVLDSDGSYFLYSKLSVPTSEWQRGDVFTCSVMHEALHNHYTQKSISRSPGK light: MDTRAPTQLLGLLLLWLPGARCDVVMTQTPASVSEPVGGAVTIKCQASQSIGSNLAWYQHKPGQPPKLLIYFASSLASGVSSRFKGGRSGTQFTLTISDLECADAATYYCHCTYYPLSYVTFGGGTEVVVKGDPVAPTVLIFPPAADQVATGTVTIVCVANKYFPDVTVTWEVDGTTQTTGIENSKTPQNSADCTYNLSSTLTLTSTQYNSHKEYTCKVTQGTTSVVQSFNRGDC | Yes | No
3 | No | Yes | No | 3B1: rabbit anti-α11β1 mAb; heavy chain SEQ ID NO: 201, light chain SEQ ID NO: 202 (antibody) heavy: METGLRWLLLVAVLKGVQCQEQLEESGGGLVKPEGSLTLTCKASGFDLSSGYDMCWVRQAPGKGLEWIACIYADYSGSTYYASWVNGRFTISSSTSLNTVDLKMTSLTAADTATYFCARGATGNGGYGYYFNLWGPGTLVTVSSGQPKAPSVFPLAPCCGDTPSSTVTLGCLVKGYLPEPVTVTWNSGTLTNGVRTFPSVRQSSGLYSLSSVVSVTSSSQPVTCNVAHPATNTKVDKTVAPSTCSKPMCPPPELPGGPSVFIFPPKPKDTLMISRTPEVTCVVVDVSQDDPEVQFTWYINNEQVRTARPPLREQQFNSTIRVVSTLPIAHQDWLRGKEFKCKVHNKALPAPIEKTISKARGQPLEPKVYTMGPPREELSSRSVSLTCMINGFYPSDISVEWEKNGKAEDNYKTTPTVLDSDGSYFLYSKLSVPTSEWQRGDVFTCSVMHEALHNHYTQKSISRSPGK light: MDTRAPTQLLGLLLLWLPGARCADIVMTQTPASVSEPVGGTVTIKCQASQNINSGLAWYQQKPGQPPKLLIYKASTLASGVSSRFKGSGSGTEFTLTISDLECADAATYYCQTYYYSSSSSDNAFGGGTEVVVKGDPVAPTVLIFPPAADQVATGTVTIVCVANKYFPDVTVTWEVDGTTQTTGIENSKTPQNSADCTYNLSSTLTLTSTQYNSHKEYTCKVTQGTTSVVQSFNRGDC | Yes | No
